Bridge positions count the residues as written; N and C are the ends.
molecular target: T1, human KDR-Fc fusion (R&D Systems #357-KD-050) (human, UniProt P35968 20-764); assay: phage binding screen on KDR-Fc; class legend in paragraph 246
T1 construct: bought
T1 sequence (P35968 20-764): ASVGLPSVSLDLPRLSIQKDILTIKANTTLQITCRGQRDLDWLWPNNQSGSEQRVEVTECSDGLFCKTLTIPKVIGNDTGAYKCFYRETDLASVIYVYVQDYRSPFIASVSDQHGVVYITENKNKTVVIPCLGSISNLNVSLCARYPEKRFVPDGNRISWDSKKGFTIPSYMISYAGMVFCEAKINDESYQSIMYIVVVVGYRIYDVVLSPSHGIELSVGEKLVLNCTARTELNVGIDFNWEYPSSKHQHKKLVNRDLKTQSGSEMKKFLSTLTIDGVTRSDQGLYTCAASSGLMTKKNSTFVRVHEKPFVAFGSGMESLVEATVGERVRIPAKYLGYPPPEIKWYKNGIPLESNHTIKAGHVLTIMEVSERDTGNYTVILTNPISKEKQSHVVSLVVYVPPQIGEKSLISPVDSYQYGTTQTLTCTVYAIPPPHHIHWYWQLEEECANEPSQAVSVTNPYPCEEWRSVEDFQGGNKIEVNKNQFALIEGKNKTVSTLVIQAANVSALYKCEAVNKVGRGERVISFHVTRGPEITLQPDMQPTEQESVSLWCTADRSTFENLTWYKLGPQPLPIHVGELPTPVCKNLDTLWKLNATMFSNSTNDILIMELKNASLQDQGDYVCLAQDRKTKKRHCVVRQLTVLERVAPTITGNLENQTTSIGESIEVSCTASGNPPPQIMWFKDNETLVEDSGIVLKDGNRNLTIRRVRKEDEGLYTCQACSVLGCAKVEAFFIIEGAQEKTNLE

Binder | binding result
PKWCEEDWYYCMIT [phage isolate PKWCEEDWYYCMIT] | binds
ANWCEEDWYYCFIT [phage isolate ANWCEEDWYYCFIT] | binds
ANWCEEDWYYCWIT [phage isolate ANWCEEDWYYCWIT] | binds
ANWCEEDWYYCYIT [phage isolate ANWCEEDWYYCYIT] | binds
SDWCRVDWYYCWLM [phage isolate SDWCRVDWYYCWLM] | binds

molecular target: T1, human KDR-Fc fusion (R&D Systems …); assay: fluorescence anisotropy, fluorescein-labeled peptide

Binder | Kd [nM] | binding result
Ac-SGAHQCHHWTSGPYGEVCFNYGSGGGK-NH2 (disulfide 6-18 (inferred); not fully specified) [SEQ ID NO:319] | ~2000 | –
Ac-AGVGWVECYQSTGFCYHSRDGTGGGK-NH2 (cysteine pairing not given here; also: C-terminal Lys fluorescein-labeled in some assays) [SEQ ID NO:284] | 1300 | –
Ac-AGPEWCEVDWYYCWLLGTGGGK-NH2 (disulfide 6-13 (inferred); not fully specified) [SEQ ID NO:276] | 75 | –
Ac-AGGGWVECYWATGRCIEFAGGTGGGK-NH2 (disulfide 8-15 (inferred); not fully specified) [SEQ ID NO:288] | – | no binding
Ac-AGGGWVECRAETGHCQEYRLGTGGGK-NH2 (disulfide 8-15 (inferred); not fully specified) [SEQ ID NO:290] | 1600 | –
Ac-SGRLDCDKVFSGPYGKVCVSYGSGGGK-NH2 (disulfide 6-18 (inferred); not fully specified) [SEQ ID NO:316] | 1050 | –
Ac-AGWVECWWKSGQCYEFGTGGGK-NH2 (cysteine pairing not given here; also: C-terminal Lys fluorescein-labeled for some assays, unlabeled for others) [SEQ ID NO:266] | 1300 | –
Ac-GDSSVCFEYSWGGEVCFRYDPGGGK-NH2 (disulfide 6-16 (inferred); not fully specified; also: C-terminal Lys fluorescein-labeled in some assay forms) [SEQ ID NO:487] | 58 | –
Ac-GSNSHCYIWDGMWLCFPDAPGGGK-NH2 (disulfide 6-15 (inferred); not fully specified) [SEQ ID NO:315] | 740 | –
Ac-GDSRVCWEYSWGGQICLGYDPGGGK-NH2 (disulfide 6-16 (inferred); not fully specified; also: C-terminal Lys fluorescein-labeled in some assay forms) [SEQ ID NO:488] | 320 | –
Ac-GDNWKCEYTQGYDYTECVYLDPGGGK-NH2 (disulfide 6-17 (inferred); not fully specified) [SEQ ID NO:302] | 820 | –
Ac-AGQAWVECYAETGYCWPRSWGTGGGK-NH2 (disulfide 8-15 (inferred); not fully specified) [SEQ ID NO:282] | 710 | –
Ac-AGQAWIECYAEDGYCWPRSWGTGGGK-NH2 (disulfide 8-15 (inferred); not fully specified) [SEQ ID NO:283] | 1400 | –
Ac-AGVWECAKTFPFCHWFGTGGGK-NH2 (disulfide 6-13 (inferred); not fully specified) [SEQ ID NO:265] | 2600 | –
Ac-AGWIQCNSITGHCTSGGTGGGK-NH2 (disulfide 6-13 (inferred); not fully specified) [SEQ ID NO:268] | 240 | –
Ac-AGPWTCWLEDHLACAMLGTGGGK-NH2 (disulfide 6-14 (inferred); not fully specified) [SEQ ID NO:312] | 3900 | –
Ac-AGEGWVECFANTGACFTYPRGTGGGK-NH2 (disulfide 8-15 (inferred); not fully specified) [SEQ ID NO:292] | 2100 | –
Ac-AQQVQYQFFLGTPRYEQWDLDKGGK-NH2 (not fully specified) [SEQ ID NO:304] | 1700 | –
Ac-GDDSYCMMNEKGWWNCYLYDPGGGK-NH2 (cysteine pairing not given here; also: C-terminal Lys fluorescein-labeled in some assays) [SEQ ID NO:297] | 1300 | –
Ac-AGERWVECRAETGFCYTWVSGTGGGK-NH2 (disulfide 8-15 (inferred); not fully specified) [SEQ ID NO:289] | 2100 | –

Binder | Kd [nM] | binding result
Ac-GDPPLCYFVGTQEWHHCNPFDPGGGK-NH2 (disulfide 6-17 (inferred); not fully specified) [SEQ ID NO:296] | 600 | –
Ac-AQRSWYLGPPYYEEWDPIPNGGK-NH2 (not fully specified) [SEQ ID NO:309] | 1800 | –
Ac-AGSKWCEQDWYYCWLLGTGGGK-NH2 (disulfide 6-13 (inferred); not fully specified) [SEQ ID NO:278] | 400 | –
Ac-AGFTWVECHQATGRCVEWTTGTGGGK-NH2 (disulfide 8-15 (inferred); not fully specified) [SEQ ID NO:285] | 2000 | –
Ac-SGRTTCHHQISGPHGKICVNYGSGGGK-NH2 (disulfide 6-18 (inferred); not fully specified) [SEQ ID NO:318] | 650 | –
Ac-AGDSWVECDAQTGFCYSFLYGTGGGK-NH2 (disulfide 8-15 (inferred); not fully specified) [SEQ ID NO:287] | 2300 | –
Ac-AGVAWVECYQTTGKCYTFRGGTGGGK-NH2 (disulfide 8-15 (inferred); not fully specified) [SEQ ID NO:291] | ~2000 | –
Ac-AGDWGCSLGNWYWCSTEGTGGGK-NH2 (disulfide 6-14 (inferred); not fully specified) [SEQ ID NO:313] | 2000 | –
Ac-SGRLDCDKVFSGPHGKICVNYGSGGGK-NH2 (disulfide 6-18 (inferred); not fully specified) [SEQ ID NO:317] | ~2000 | –
Ac-AGSDWCRVDWYYCWLMGTGGGK-NH2 (disulfide 6-13 (inferred); not fully specified) [SEQ ID NO:270] | 64 | –
Ac-AGANWCEEDWYYCWITGTGGGK-NH2 (disulfide 6-13 (inferred); not fully specified) [SEQ ID NO:272] | 97 | –
Ac-AGPDWCEEDWYYCWITGTGGGK-NH2 (disulfide 6-13 (inferred); not fully specified) [SEQ ID NO:273] | 75 | –
Ac-AGRNWCEEDWYYCFITGTGGGK-NH2 (disulfide 6-13 (inferred); not fully specified) [SEQ ID NO:279] | 190 | –
Ac-AGVNWCEEDWYYCWITGTGGGK-NH2 (disulfide 6-13 (inferred); not fully specified) [SEQ ID NO:280] | 260 | –
Ac-AGANWCEEDWYYCYITGTGGGK-NH2 (disulfide 6-13 (inferred); not fully specified) [SEQ ID NO:281] | 180 | –
Ac-AGSNWCEEDWYYCYITGTGGGK-NH2 (disulfide 6-13 (inferred); not fully specified) [SEQ ID NO:274] | 46 | –
Ac-AGANWCEEDWYYCFITGTGGGK-NH2 (disulfide 6-13 (inferred); not fully specified) [SEQ ID NO:271] | 310 | –
Ac-AGPDWCAADWYYCYITGTGGGK-NH2 (disulfide 6-13 (inferred); not fully specified) [SEQ ID NO:275] | 57 | –
Ac-GDPAQCWESNYQGIFFCDNPDPGGGK-NH2 (disulfide 6-17 (inferred); not fully specified) [SEQ ID NO:298] | 2300 | –

From patent publication EP2014310A2 (Dyax Corporation, dated 2009)
